Laboratory results: IntAct's records for PubMed 19524572

B1: Phototropin-1 (Arabidopsis thaliana (Mouse-ear cress)), O48963 (parent)
chain: MEPTEKPSTKPSSRTLPRDTRGSLEVFNPSTQLTRPDNPVFRPEPPAWQNLSDPRGTSPQPRPQQEPAPSNPVRSDQEIAVTTSWMALKDPSPETISKKTITAEKPQKSAVAAEQRAAEWGLVLKTDTKTGKPQGVGVRNSGGTENDPNGKKTTSQRNSQNSCRSSGEMSDGDVPGGRSGIPRVSEDLKDALSTFQQTFVVSDATKPDYPIMYASAGFFNMTGYTSKEVVGRNCRFLQGSGTDADELAKIRETLAAGNNYCGRILNYKKDGTSFWNLLTIAPIKDESGKVLKFIGMQVEVSKHTEGAKEKALRPNGLPESLIRYDARQKDMATNSVTELVEAVKRPRALSESTNLHPFMTKSESDELPKKPARRMSENVVPSGRRNSGGGRRNSMQRINEIPEKKSRKSSLSFMGIKKKSESLDESIDDGFIEYGEEDDEISDRDERPESVDDKVRQKEMRKGIDLATTLERIEKNFVITDPRLPDNPIIFASDSFLELTEYSREEILGRNCRFLQGPETDLTTVKKIRNAIDNQTEVTVQLINYTKSGKKFWNIFHLQPMRDQKGEVQYFIGVQLDGSKHVEPVRNVIEETAVKEGEDLVKKTAVNIDEAVRELPDANMTPEDLWANHSKVVHCKPHRKDSPPWIAIQKVLESGEPIGLKHFKPVKPLGSGDTGSVHLVELVGTDQLFAMKAMDKAVMLNRNKVHRARAEREILDLLDHPFLPALYASFQTKTHICLITDYYPGGELFMLLDRQPRKVLKEDAVRFYAAQVVVALEYLHCQGIIYRDLKPENVLIQGNGDISLSDFDLSCLTSCKPQLLIPSIDEKKKKKQQKSQQTPIFMAEPMRASNSFVGTEEYIAPEIISGAGHTSAVDWWALGILMYEMLYGYTPFRGKTRQKTFTNVLQKDLKFPASIPASLQVKQLIFRLLQRDPKKRLGCFEGANEVKQHSFFKGINWALIRCTNPPELETPIFSGEAENGEKVVDPELEDLQTNVF
partner: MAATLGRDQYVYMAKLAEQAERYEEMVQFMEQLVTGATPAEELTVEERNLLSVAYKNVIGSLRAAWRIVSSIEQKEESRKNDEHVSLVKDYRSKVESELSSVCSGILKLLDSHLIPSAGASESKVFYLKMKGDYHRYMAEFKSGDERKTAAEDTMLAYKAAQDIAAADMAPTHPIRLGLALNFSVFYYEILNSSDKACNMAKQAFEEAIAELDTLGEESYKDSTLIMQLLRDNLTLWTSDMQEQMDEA
B2: Phototropin-1 (Arabidopsis thaliana (Mouse-ear cress)), O48963 (parent)
chain: B1 chain
partner: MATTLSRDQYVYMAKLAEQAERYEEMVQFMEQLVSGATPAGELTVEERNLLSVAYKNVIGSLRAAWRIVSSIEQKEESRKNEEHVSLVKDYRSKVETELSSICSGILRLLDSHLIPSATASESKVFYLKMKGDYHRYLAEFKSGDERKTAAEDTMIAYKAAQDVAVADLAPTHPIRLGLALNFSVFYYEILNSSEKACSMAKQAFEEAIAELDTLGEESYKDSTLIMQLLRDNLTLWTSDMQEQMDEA

Variants of: B1
Conditions: with 14336_arath GRF6, P48349

Row | effect of a mutation on the interaction | Variant
1 | decreasing interaction | S376A

Variants of: B1
Conditions: with 14336_arath GRF6, P48349
Remark: another data set of the same source

Row | effect of a mutation on the interaction | Variant
2 | disrupting interaction | S376A
3 | disrupting interaction | S350A

Variants of: B1
Conditions: with 14336_arath GRF6, P48349
Remark: another data set of the same source

Row | effect of a mutation on the interaction | Variant
4 | decreasing interaction | S350A

Variants of: B1
Conditions: with 14336_arath GRF6, P48349
Remark: another data set of the same source

Row | effect of a mutation on the interaction | Variant
5 | disrupting interaction | S410A

Variants of: B2
Conditions: with 14338_arath GRF8, P48348

Row | effect of a mutation on the interaction | Variant
6 | disrupting interaction | S376A
7 | disrupting interaction | S410A
8 | disrupting interaction | S350A
